# Data as given in PMC3479641 (Structure (London, England : 1993), 2012).
# B1: Csd2 from B. halodurans, Strep-II-tagged, co-expressed with Cas5d, Csd1 and pre-crRNA (natural protein, UniProt Q9KFY1 1-283, looked up)
# chain: MTILDHKIDFAVILSVTKANPNGDPLNGNRPRQNYDGHGEISDVAIKRKIRNRLLDMEEPIFVQSDDRKADSFKSLRDRADSNPELAKMLKAKNASVDEFAKIACQEWMDVRSFGQVFAFKGSNLSVGVRGPVSIHTATSIDPIDIVSTQITKSVNSVTGDKRSSDTMGMKHRVDFGVYVFKGSINTQLAEKTGFTNEDAEKIKRALITLFENDSSSARPDGSMEVHKVYWWEHSSKLGQYSSAKVHRSLKIESKTDTPKSFDDYAVELYELDGLGVEVIDGQ
# B2: Csd1 from B. halodurans, co-expressed with Cas5d, Csd2 and pre-crRNA (natural protein, UniProt Q9KFY2 1-627, looked up)
# chain: MSWLLHLYETYEANLDQVGKTVKKGEDREYTLLPISHTTQNAHIEVTLDEDGDFLRAKALTKESTLIPCTEEAASRSGSKVAPYPLHDKLSYVAGDFVKYGGKIKNQDDAPFDTYIKNLGEWANSPYATEKVKCIYTYLKKGRLIEDLVDAGVLKLDENQQLIEKWEKRYEELLGEKPAIFSSGATDQASAFVRFNVFHPESIDDVWKDKEMFDSFISFYNDKLGEEDICFVTGNRLPSTERHANKIRHAADKAKLISANDNSGFTFRGRFKTSREAVGISYEVSQKAHNALKWLIHRQSKSIDDRVFLVWSNDNSLVPNPDEDAVDIMKHANRELERDPDTGQIFAGEVKKAIGGYRSDLNYQPEVHILVLDSATTGRMAVLYYRSLNKELYLNRLEAWHDSCAWEHRYRRDEKEFISFYGAPATKDIAFAAYGPRASEKVIKDLMERMLPCIVDGRRVPKDIVRSAFQRASNPVSMERWEWEKTLSITCALIRKMHIEQKEEWGVPLDKSSTDRSYLFGRLLAVADVLERGALGKDETRATNAIRYMNSYSKNPGRTWKTIQESLQPYQAKLGTKATYLSKLVDEIGDQFEPGDFNNNPLTEQYLLGFYSQRRELYKKKEEETNQ
# Biological target: T1, Cas5d from B. halodurans, His6-tagged, co-expressed with Csd1, Csd2 and pre-crRNA (B. halodurans, UniProt Q9KFY3 1-236)
# T1 sequence: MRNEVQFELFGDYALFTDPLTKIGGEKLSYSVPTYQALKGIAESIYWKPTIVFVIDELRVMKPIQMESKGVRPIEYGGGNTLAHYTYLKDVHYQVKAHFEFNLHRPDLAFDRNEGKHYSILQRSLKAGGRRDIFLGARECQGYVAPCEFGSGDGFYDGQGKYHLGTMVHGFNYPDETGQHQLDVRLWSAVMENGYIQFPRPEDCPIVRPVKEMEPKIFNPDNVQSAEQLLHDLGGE
# Assay: SEC
row,Binder,stoichiometry N
1,B1,~6 copies in the complex (with two copies of Cas5d and one copy of Csd1)
2,B2,~1 copies in the complex (with two copies of Cas5d and six copies of Csd2)
